Molecular target: dynamic microtubules grown from GMPCPP-stabilized seeds (UniProt Q6B856)
Assay: optical trap rupture force assay

UniProt Q6B856, sequence (Q6B856 whole entry, looked up): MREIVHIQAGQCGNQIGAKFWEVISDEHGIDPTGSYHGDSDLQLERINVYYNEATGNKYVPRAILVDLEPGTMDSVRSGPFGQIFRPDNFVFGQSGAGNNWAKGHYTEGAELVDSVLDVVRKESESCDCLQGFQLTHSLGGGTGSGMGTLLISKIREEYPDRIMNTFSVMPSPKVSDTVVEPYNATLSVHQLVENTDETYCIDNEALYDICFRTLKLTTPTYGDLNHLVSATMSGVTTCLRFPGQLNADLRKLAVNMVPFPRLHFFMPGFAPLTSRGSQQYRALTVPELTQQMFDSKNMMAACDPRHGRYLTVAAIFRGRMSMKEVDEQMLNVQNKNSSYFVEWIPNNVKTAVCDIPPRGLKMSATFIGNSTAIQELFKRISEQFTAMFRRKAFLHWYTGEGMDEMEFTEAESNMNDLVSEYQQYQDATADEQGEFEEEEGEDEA

## dad1-1 kinetochore particles (from UniProt P40568 1-576) (complex)
  mean rupture force: 2.7 pN

— PMC4197110
